The supplement of paper PMC10567573

B1: ZNF649 (parent)
chain: LVAHQRYHTGKTPFVCPECGQPCS
B2: SMARCE1 (parent)
chain: YHNSPAYLAYINAKSRAEAALEEE

Variants of: B1
Assay: protein stability index of a GFP-peptide fusion (GPS, HEK-293T) (PSI 1-6); higher = more stable
Conditions: c terminus: a fixed tail appended
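Further: lentivirally expressed fusions sorted by FACS into six bins by GFP to DsRed ratio, PSI derived from sequencing read proportions per bin multiplied by bin number.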

Protein stability index of substitutions, site by site:
Q5: V 1.89 | L 2.05 | H 3.11
P17: K 3.37 | D 3.35
E18: F 2.56 | Q 3.31
H8: L 2.93
G20: F 2.85 | Q 3.14
P13: S 3.65 | I 2.76 | C 2.71
A3: M 2.71
L1: S 4.24
V2: K 2.91 | F 2.78
T12: H 2.56 | G 3.04 | P 3.2
Q21: C 3.08
T9: M 3.16 | N 3.05
Y7: Q 4.14 | W 2.38
R6: W 3.1 | S 3.96
K11: H 3.35
C19: K 3.14
S24: A 2.94
G10: M 3.44

Variants of: B2
Assay: as above
Conditions: c terminus: a fixed tail appended

Protein stability index, by site and new letter:
S4: V 2.44 | Y 2.09 | D 3.31 | R 2.19 | M 3.39 | N 2.23 | L 2.35 | H 1.91 | A 3.12 | T 2.6 | P 1.91 | I 2 | K 1.77 | F 2.04 | W 2.41 | E 2.89 | C 1.56 | Q 3.3 | G 2.45
Y1: Q 5.29 | N 4.85 | H 4.6 | I 4.78 | M 5.08 | T 5.26 | V 4.95 | C 4.74 | L 4.97 | S 4.85 | E 5.26 | P 5.16 | A 5.18 | D 5.28 | R 4.86 | G 4.65 | K 4.96 | W 4.52 | F 2.02
P5: N 2.56 | E 1.82 | S 2.67 | D 2.15 | T 2.46 | L 2.92 | C 3.56 | Y 2.31 | F 3.01 | K 2.06 | V 3.69 | G 3.04 | Q 4.02 | I 2.05 | W 2.98 | H 3.81 | M 2.65 | A 2.76 | R 2.99
I11: G 1.87 | Y 3.27 | Q 2.85 | P 3.06 | R 2.29 | D 3.19 | E 2.64 | V 2.33 | S 2.99 | C 1.66 | F 2.67 | H 2.46 | L 2.24 | W 2.35 | K 2.59 | M 2.35 | N 2.59 | T 2.99
R16: Y 2.82 | P 2.12 | N 1.35 | Q 2.17 | S 2.43 | T 2.55 | K 2.4 | L 2.56 | A 2.04 | H 2.15 | V 2.99 | M 1.81 | I 2.2 | E 2.33 | F 1.77 | G 1.74 | D 2.4 | C 2.72
A9: G 2.19 | Q 1.84 | M 1.38 | N 2.39 | K 1.68 | R 1.96 | E 1.56 | S 2.96 | I 2.81 | C 1.77 | L 1.5 | P 3.18 | V 2.29 | H 2.51 | T 2.24 | F 1.94 | W 2.21 | D 1.42 | Y 1.74
Y7: R 2.76 | A 2.66 | N 2.31 | K 3 | V 2.91 | S 2.76 | E 3.06 | F 2.64 | D 3.12 | M 2.4 | G 2.31 | Q 2.77 | L 2.28 | C 2.26 | P 2.98 | T 2.95 | I 2.47 | W 2.31 | H 2.78
N3: R 2.26 | A 2.05 | S 1.81 | M 2.06 | C 1.34 | T 2.19 | L 1.95 | Y 2.87 | F 1.81 | P 1.55 | G 2.28 | W 1.89 | E 2.22 | I 2.08 | K 2.89 | V 2.03 | Q 1.57 | H 1.69 | D 1.89
A13: M 3.18 | E 1.94 | Q 2.83 | P 2.63 | G 2.27 | H 2.88 | S 1.83 | Y 2.13 | F 2.06 | D 1.94 | N 1.9 | I 2.49 | R 2.51 | W 1.64 | L 2.21 | V 2.33 | K 2.52 | C 3.05 | T 2.28
L8: T 2.81 | Y 2.5 | K 3.83 | M 2.23 | A 3.39 | F 2.93 | V 2.49 | N 3.65 | Q 3.47 | P 1.81 | W 2.04 | C 3.05 | D 2.22 | E 1.8 | I 3.09 | R 2.47 | G 1.69 | S 3.08 | H 2.12
Y10: H 1.68 | E 2.94 | T 3.44 | L 2 | C 2.25 | N 2.05 | R 3.34 | D 2.37 | G 1.75 | V 2.41 | A 3.76 | K 3.03 | S 2.56 | M 2.3 | I 3 | Q 2.19 | P 2.11 | F 2.32 | W 2.28
A6: L 1.81 | H 2.3 | T 1.78 | G 2.37 | N 1.81 | M 2.07 | D 2.12 | V 2.02 | F 2.06 | K 2.22 | R 2.14 | P 1.94 | Q 2.11 | Y 2.23 | C 1.77 | S 2.43 | I 2.61 | W 2.21 | E 2.58
K14: V 2.15 | H 2.16 | N 2.57 | W 1.62 | L 1.9 | E 2.03 | G 2.89 | C 2.14 | Y 2.63 | R 2.51 | Q 2.55 | D 1.16 | F 2.35 | S 1.51 | I 2.81 | P 1.95 | A 1.79 | M 1.57 | T 2.86
N12: W 2.09 | E 1.93 | L 2.1 | R 2.04 | H 3.13 | G 1.65 | P 3.69 | A 1.77 | V 2.44 | F 2.28 | K 2.41 | D 2.26 | S 1.58 | Q 2.25 | M 2.33 | Y 2.23 | I 1.64 | C 2.02 | T 2.06
H2: L 2.09 | G 2.65 | R 4.83 | Y 4.42 | F 2.79 | K 5.07 | M 1.96 | Q 1.7 | N 3.77 | T 1.7 | W 2.66 | E 4.87 | A 2.37 | D 4.99 | V 2.84 | S 2.5 | P 1.84 | I 2.2 | C 2.12
A17: C 2.1
S15: L 2.42 | Q 2.17 | P 1.61 | R 2.04 | M 2.14 | V 2.26 | H 2.59 | D 2.06 | C 3.03 | K 2.31 | E 2.29 | Y 1.62 | G 2.11 | F 2.06 | A 2.53 | W 2.08 | T 2 | I 2.25 | N 2.29
